# Test results reported in patent US20260258115A1 (MAPP BIOPHARMACEUTICAL, published 2026).
# B1: ADI-41277 (antibody, V domains shown)
# VH: QVQLQESGPGLVKPSGTLSLTCAVSGGSITGRNWWSWVRQPPGKELERIGEIYHGGSTEYNPSLKGRVTISVDKSKNQFSLRLNSVTAADTAVYYCARVAHYDSNGYYIGYFDLWGRGTLVTVSS
# VL: EIVLTQSPPSLSASVGDRVTITCRASQSISIYLNWYQQKPGKAPKLLIFAASSLQSGVPLRFSGSGSGTDFTLTISSLQPEDFATYYCHQSYSAPWTFGQGTKVDIK
# B2: ADI-41261 (antibody, V domains shown)
# VH: QVQLVQSGAEVKKPGSSVKVSCKASGGTFSSYGISWVRQAPGQGLEWMGGIIPMFGAANYAQKFQGRVTITAETSTSTAFMELSSLRSDDTAVYYCARIRWVPNWGGTATSFYNGMDVWGQGTTVTVSS
# VL: EIVMTQSPGTLSLSPGERATLSCRASQSVSSSYLAWYQQKPGQAPRLLIYGASSRATGIPDRFSGSGSGTDFTLTISRLEPEDFAVYYCQHYGSSLFTFGPGTKVDIK
# B3: ADI-41270 (antibody, V domains shown)
# VH: EVQLVESGGGVVQPGQSLRLSCAASGFTFSSFAMHWVRQAPGKGLEWVAVISYDGSNKYYADSVKGRFTISRDNSKNTLSLQVNSLRAEDTAVYYCARVSAEGSMGRFSDFNYWGLGTLVTVSS
# VL: QSALTQPASVSGSPGQSITISCTGTSSDVGSYNLVSWYQQHPGKAPKLMIYEVRKRPSGVSNRFSGSKSGNTASLTISGLQAEDEADYYCCSYAGSDTYVFGTGTKLTVL
# B4: ADI-41264 (antibody, V domains shown)
# VH: EVQLVESGGGLVKPGGSLRLSCAASGFTFSNTWMSWVRQAPGKGLEWVGHIKSKTDGGTTDYAAPVKGRFTISRDDSKSILNLHLNSLKTEDSAVYYCAALPPISGWYYTPGFWGQGTLVTVSS
# VL: SYELTQPPSMSVSPGQTARITCFGDAVPKKYVYWYQQKSGQAPVMVIYDDRRRPSGIPERFSGSSSGARATLTISGAQVEDEADYYCYSTDGSGNPSFGGGTKLTVL
# B5: ADI-41266 (antibody, V domains shown)
# VH: QVQLQQSGPGLVKPSQTLSLTCAISGDSVSSNSAAWNWIRQSPSRGLEWLGRTYYRSKWYNDYAVSVKSRITINPDTSKNQFSLQLNSVTPEDTAVYYCARDLPQVDYFDGASFYFFDFWGQGTLVTVSS
# VL: QPVLTQPPSVSVAPGQTASITCGGNIIGNKGVHWYQQKPGRAPVLVVYDDSDRPSGIPERFSGSNSGNTATLTISRVEAADEADYYCQVWDTGSHPVVFGGGTKVTVL
# B6: ADI-41280 (antibody, V domains shown)
# VH: QVQLVESGPGLVKPSETLALTCTVSGGSLSTYYWSWIRQPPGKGLEWIGYIYYSGTTYYNPSLKSRVTISEDRSKNQFSLKLTSVTAADTAVYYCARHGPKTEFWSAQYYLELWGRGTLVTVSS
# VL: EIVLTQSPGTLSLSPGERATLSCRASQSVSSDYLAWYQQKPGQAPSLLIYGVSTRATGIPDRISGSGSGTDFTLTISRLEPEDFAVYYCHQYGTSPWTFGQGTKVEIK
# B7: ADI-41276 (antibody, V domains shown)
# VH: EVQLVESGGGLVQPGRSLRLSCRASGFTFRNYAMSWVRQAPGKGLEWVGFIRGKGYGGTTEYAASVKGRFTISSDDSRSIAYLQMNSLKTEDTAVYYCTRVREDGVIAVAEYYFDYWGQGTLVTVSS
# VL: not shown
# B8: ADI-41278 (antibody, V domains shown)
# VH: EVQLVESGPALVKPTQTLTLTCTFSGFSLSTKRMGVSWIRQPPGKALEWLARIDWDDDKFYSTSLKTRLTISKDTSKNQVVLTLANMDPVDTATYFCARTTVYASGGYYLYYLDYWGQGTLVTVSS
# VL: DIVMTQTPSSLSASVGDRVTLTCRASQRIASYVNWYHQKPGKAPNLLIYAASNLQSGVPSRFSGSGSGTDFTLTISSLQPEDFATYYCQQSYSTPLTFGQGTKLEIK
# B9: ADI-41274 (antibody, V domains shown)
# VH: EVQLVESGGGLVKPGGSLRLSCAASGFSFSSYAMNWVRQAPGKGLQWVSSISAGSSYIDYADSVKGRFTISRDNAENSLFLQMNSLRVEDTAVYYCARVGSYTHGYEFDYWGQGTLVTVSS
# VL: QPVLTQPPSVSGAPGQRVTISCTGSNSNIGAGYDVHWYQQLPGTAPKLLIYASTIRPSGVPDRFSGSKSGTSASLAITGLQAEDEADYYCQSYDRNLSVVFGGGTKVTVL
# B10: ADI-41265 (antibody, V domains shown)
# VH: EVQLVQSGAEVKKPGESLTISCKDSGYSFTSYWIGWVRQVPGKGLEWMGIVYPGDSRYSPSFQGHVTMSADKSINTAYLQWSTLKASDTAMYYCAKVVTYGSAIRWFESWGQGTLVTVSS
# VL: QSVLTQPPSVSAAPGQKVSISCSGSSSNIGNNFVSWYQQVPGTAPKLLIIDNNKRPSGIPDRFSGSKSGTSATLGITGLQTGDEADYYCGTWDSRLSAEVFGGGTKLTVL
# B11: ADI-41283 (antibody, V domains shown)
# VH: QVTLKESGPTLVKPTQTLTLTCTFSGFSLSTFGVAVGWIRQPPGKALEWLALIYWDDDKRYSPSLKSRLTITKDISKNQVVLTMTNMDPVDTATYYCAHRLRSLTARGVFDIWGQGTTVTVSS
# VL: DIRLTQSPSSLSASVGDRVTITCRASQSINNFLNWYQQRPGKAPTLLIYSASSLQSGVPSRFSGSGSGTDFTLTISSLQPEDFATYFCQQTDSFPWTFGQGTKVEIK
# B12: ADI-41284 (antibody, V domains shown)
# VH: QVQLVQSGGGLVKPGGSLRLSCAASGFTFSNAWMSWVRQAPGKGLEWVGRIKSEVDGGTADYAANVKGRLTISRDDSKNMMYLQMNSLKTEDTAVYYCTTDPGVGWIFGEVKLFRTDPEYWGQGTLVTVSS
# VL: QSVLTQPPSVSAAPGQKVTISCSGSSSNIGNHYVSWYQQLPGTSPKLLIYDNNKRPSGIPDRFSGSKSGTSATLGITGLQPGDEADYYCGTWDSSLSAVRVFGGGTKVTVL
# B13: ADI-41285 (antibody, V domains shown)
# VH: QVQLVQSGAEVKKPGSSVKVSCKASGGTFSYYAISWVRQAPGQGLEWMGGIIPILGTVKNAQKFQGRVTITADKITSIAYMELSSLRHEDTAVYYCARDYYDSSGYYYNGYGMDVWGQGTTVTVSS
# VL: QSVLIQPPSASGTPGQRVTISCSGSSSNIGSNYVYWYQQLPGTAPKLLIYRNDQRPSGVPDRFSGSKSGTSASLAISGLRSGDEADYYCAAWDDSLGGPIWVFGGGTKLTVL
# B14: ADI-41282 (antibody, V domains shown)
# VH: QVQLVQSGGGVVQPGRSLRLSCAASGFMFTIYSMHWVRQAPGKGLEWVAVISNDGVNKYYSDSVKGRFTISRDNSKNTLYLQMNNLRAEDTAVYYCASDIVVLVTATDYWGQGTLVTVSS
# VL: ETTLTQSPVTLSLSPGERATLSCRTSQSFSSPLLAWYQQKPGQAPRLLIYGASNRATGIPDRFSGSGSGTDFTLTISRLEPVDFAVYYCQQYGSSPYTFGQGTKLEIK
# B15: ADI-41268 (antibody, V domains shown)
# VH: EVQLVESGGGLVKPGGSLRLSCVASGFGFTSYSMNWVRQAPGKGLEWVSSISASSTYIHYADSVKGRFTISRDNARNSLYLQMISLRADDTAVYYCSRDGPTYGSGVHVWGQGTMVTVSS
# VL: QSALIQPVSVSGSPGQSITISCTGTRSDVGGYNYVSWYQQHPGKAPKLMIYEVRNRPSGVSDRFSGSKSGNTASLTISGLQAEDEGDYYCSSYTSSDTLFYVFGSGTKLTVL
# B16: ADI-41279 (antibody, V domains shown)
# VH: QVQLVQSGAEVKKAGETLKISCRGPAHTFTSFWIGWVRQTPGKGLEWMGNIYPGDTDTTYSPSFRGQVTISADKSISTAYLQWNSLKASDTAIYYCATRVRHGYSSSGSFESWGQGTMVTVSS
# VL: QSVVTQPPSVSGAPGQRITISCTGSNSNTGAGYDVHWYQQLPGAAPKLLIFANNNRPSGVPDRFSGSKSGTSASLAITGLQAEDEADYYCQSYDNSLSAYVFGTGTKLTVL
# B17: ADI-41267 (antibody, V domains shown)
# VH: QVQLVQSGPGLVKPSGTLSLTCAVSGGSISTTHWWSWVRQPPGKGLEWIGEIYHSGSTNYNPSLKSRVTISVDKSRSQFSLKLTSVTAADTAVYYCARGDPLCSGGICYSGYFDYWGQGTLVTVSS
# VL: SYVLTQPPSVSVSPGQTATITCSGDKLGDQYACWYQQKSGQSPVLVIYRDNKRPSGIPERFSGSNSGNTATLTISETQAMDEADYYCQAWGSSSVVFGGGTKVTVL
# B18: ADI-41263 (antibody, V domains shown)
# VH: QVQLVQSGAEVKKPGASVKVYCKASGYTFTSHYIHWVRQAPGQGLEWMGRMNPSGGSPMYAQKFQERVTMTRDTSTSTAYMELRSLRSEDTAVYYCAMAKFYSFDYWGQGTLVTVSS
# VL: QSVLTQPHSVSESPGKTVTISCTRSSGSIASYFVHWYQQRPGSAPTIVIYEDNQRPSGVPDRFSGSIDSSSNSASLTISGLKTEDEADYYCQSYDSSNWVFGGGTKLTVL
# B19: ADI-41281 (antibody, V domains shown)
# VH: QVQLVQSGAEVKKPGASVKVSCKASGYSFTNHGIHWVRQAPGQRLEWMGWINVANGFTAYSQNLQGRVTFTRDTSASTAYLELTSLRSEDTAVYHCARDESYCSAGYCYLYFDYWGQGTTVTVSS
# VL: DIQVTQSPSSLSASVGDRVTITCRASQNIITYVNWYQQKPGKAPELLIFGASSVQSGVPSRFSGSGSGTDFTLTISSLRPDDFATYYCQQSYSNPRTFGGGTKVEIK
# B20: ADI-41275 (antibody, V domains shown)
# VH: EVQLVESGGGLVKPGGSLRLSCAASGFMFSTYSMNWVRQAPGKGLEWVSFITGSSSDKYYAHSVKGRFTISRDNAKRTLYLQLNSLRAEDTAVYYCARFRGLYCDGDCSSRGNTYYNYYGMDVWGQGTTVTVSS
# VL: EIVMTQSPLSLSVIPGEPASISCRSSKSLLHSNGYTYLDWYLQKPGQSPQLLIHLGSNRASGVPDRFSGSGSGTDFTLKISRVEAEDVGVFYCMQALQAPPTFGPGTKVEIK
# B21: ADI-41271 (antibody, V domains shown)
# VH: QVQLQESGPGLVKPSQTLSLTCAISGDSVSSNNAAWNWIRQSPSRGLEWLGRTYYRSKWYNDYAVSVKSRITINPDTSKNQLSLQLNSVTPEDTAVYYCARAGVRQWLVRGMDAFDIWGQGTMVTVSS
# VL: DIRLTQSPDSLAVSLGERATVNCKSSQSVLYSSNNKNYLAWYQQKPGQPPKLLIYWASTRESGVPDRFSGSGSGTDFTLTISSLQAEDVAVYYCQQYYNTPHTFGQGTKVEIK
# B22: ADI-41273 (antibody, V domains shown)
# VH: EVQLLESGGDLVRPGGSLRLSCTASGFSFSSSEMNWVRQAPGKGLEWVASINSGGDDIYYADSVKGRFTISRDNAKNSLSLQMDSLRAEDTALYYCARSRSGYSSGWSRFFGNWGQGTLVTVSS
# VL: QSALTQPRSVSGSPGQSVTISCTGTISDIGAYNYVSWYQQHPGKAPKVMIYDVSKRPSGVPDRFSGSKSGFTASLTISGLQAEDEADYYCCSYAGRWVFGGGTKLTVL
# Molecular target: RSV F on RSV-A2 virus (Respiratory syncytial virus (RSV-A2))
# Assay: cell-based or functional assay
row,Binder,Neutralization IC50 (RSV subtype A)
1,B1,> 25 µg/mL
2,B2,> 25 µg/mL
3,B3,> 25 µg/mL
4,B4,> 25 µg/mL
5,B5,> 25 µg/mL
6,B6,> 25 µg/mL
7,B7,> 25 µg/mL
8,B8,> 25 µg/mL
9,B9,0.109 µg/mL
10,B10,> 25 µg/mL
11,B11,> 25 µg/mL
12,B12,> 25 µg/mL
13,B13,> 25 µg/mL
14,B14,> 25 µg/mL
15,B15,0.177 µg/mL
16,B16,> 25 µg/mL
17,B17,> 25 µg/mL
18,B18,> 25 µg/mL
19,B19,> 25 µg/mL
20,B20,> 25 µg/mL
21,B21,> 25 µg/mL
22,B22,> 25 µg/mL
